From US20060019324A1 come the findings set out here.

In series [1] the target is PknB1-279 (His-tagged catalytic kinase core of the Ser/Thr protein kinase PknB, Rv0014c, aa 1-279) (Mycobacterium tuberculosis) (UniProt P9WI81). As to the kind of experiment: cell-based or functional assay.
For series [2], the target named is T1, PknB1-279 (His-tagged catalytic kinase core of the Ser/Thr protein kinase PknB, Rv0014c, aa 1-279), P9WI81.
T1 chain: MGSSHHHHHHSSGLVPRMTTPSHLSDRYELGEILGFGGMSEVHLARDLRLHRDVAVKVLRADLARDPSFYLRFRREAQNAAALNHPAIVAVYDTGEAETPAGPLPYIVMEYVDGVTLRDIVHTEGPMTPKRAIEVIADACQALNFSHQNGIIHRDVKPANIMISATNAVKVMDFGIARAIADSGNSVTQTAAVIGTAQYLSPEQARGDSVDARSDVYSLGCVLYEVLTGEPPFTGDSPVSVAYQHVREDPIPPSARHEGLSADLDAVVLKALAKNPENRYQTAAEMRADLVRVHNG

For the molecule “PstP1-240 (His-tagged catalytic domain of the Ser/Thr protein phosphatase PstP, Rv0018c, aa 1-240) (from UniProt P9WHW5 1-240) (enzyme)”, in series [1], the MALDI-TOF mass of PknB1-279 after treatment with PstP or alkaline phosphatase: phosphate groups removed (phosphate groups) was 3.

B1: PstP1-240 (His-tagged catalytic domain of the Ser/Thr protein phosphatase PstP, Rv0018c, aa 1-240) (protein)
chain: MARVTLVLRYAARSDRGLVRANNEDSVYAGARLLALADGMGGHAAGEVASQLVIAALAHLDDDEPGGDLLAKLDAAVRAGNSAIAAQVEMEPDLEGMGTTLTAILFAGNRLGLVHIGDSRGYLLRDGELTQITKDDTFVQTLVDEGRITPEEAHSHPQRSLIMRALTGHEVEPTLTMREARAGDRYLLCSDGLSDPVSDETILEALQIPEVAESAHRLIELALRGGGPDNVTVVVADVVD
Consider B1, for which, in series [2], the “dephosphorylation of [33P]-autophosphorylated PknB1-279 by PstP, SDS-PAGE and autoradiography, with or without MnCl2” value is listed as “PstP is capable of dephosphorylating PknB”; the “kinase activity of PknB on MBP (thio-γATP) after preincubation with PstP” value is “prior dephosphorylation of PknB by PstP inhibits kinase activity on MBP”.
